Here are results for one molecule from patent US20090214565A1 (BAYLOR RESEARCH INSTITUTE, published 2009).

The assay addresses PBMC-flu supernatant. The assay can be described thus: cell-based or functional assay.

B1: ACO-1 (antibody, V domains shown)
VH: QVQLQQPGAELVKPGASVKLSCKASGYTFTNYWMHWVKQRPGQGLEWIGEINPSHGRTIYNENFKSKATLTVDKSSITAFMQLSSLTSEDSAVYFCARGGLGPAWFAYWGQGTLVTVSA
VL: QIVLTQSPAIMSASPGEKVTLTCSAGSSVDSSYLYWYQQKPGSSPKLWIYSTSNLASGVPARFSGSGSGTSYSLTISSMEAEDAASYFCHQWSSYPFTFGSGTKLEIKR
notes: also called ACO-1 monoclonal antibody; hybridoma ATCC PTA-6557
In turn, B1 registered a neutralization of PBMC-flu, RG bioassay greater than 50%.
